Assay [1] concerns the target T1, biotinylated synthetic human Amyloid beta 1-42 peptide (human, UniProt P05067 672-713, biotinylated (N-terminal biotin in Example 4)).
T1 construct: domain: Amyloid beta 1-42 peptide; Numbers 1-42 count on the Amyloid beta peptide, not on APP; also called biotinylated human Amyloid beta 1-42; N-terminal biotin Abeta 1-42
Description: HTRF epitope competition; purified scFv titrated; competitor Abet0144-GL IgG1-TM.
Target sequence in this assay (P05067 672-713 limits assumed): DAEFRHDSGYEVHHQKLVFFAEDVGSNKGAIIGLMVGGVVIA

Assay [2] deals with T1, biotinylated synthetic human Amyloid …. The assay is described as follows: HTRF epitope competition; purified scFv titrated; competitor Abet0144-GL IgG1-TM; range of repeats. As for the experimental part:
(§1) Two thousand and twenty four scFv chosen at random from selection rounds 3 and 4 of the targeted mutagenesis approach described in section 1.2 were expressed in bacteria to produce unpurified periplasmic scFv.
(§2) One thousand six hundred and seventy two scFv, randomly selected from selection rounds 9 to 11, were screened in an epitope competition assay as described in section 1.3.
Where the assay was performed more than once, the absolute range of IC₅₀ values is provided.
(In general: TR-FRET usually uses a lanthanide donor and a delayed reading to cut background.)
Target sequence in this assay (P05067 672-713 limits assumed): as above

Assay [3] shares this target. Description: SPR (ProteOn); biotinylated peptide on streptavidin chip, scFv in solution; 1:1 Langmuir fit. As for the experimental part: These experiments were performed essentially as described by Karlsson et al. (Karlsson et al., 1991).
The chip surface was regenerated between cycles by a single 60 second injection of 10 mM Glycine pH 2.0 to remove scFv bound to the peptide.
Each scFv at 100-200 nM was sequentially passed over the peptide surface for a sufficient amount of time to observe sensorgrams that could be fitted to an appropriate binding model with confidence. An irrelevant scFv blank was subtracted from the main dataset to reduce the impact of any buffer artefacts or non-specific binding effects. An appropriate binding model was then fitted to the data.

Assay [4] has the same target. Description: Surface Plasmon Resonance, purified scFv (group statement that sums up Table 5).
Assay [5] shares this target. Description: HTRF epitope competition: purified scFv titrated against the complex of biotinylated human Amyloid beta 1-42 and Abet0144-GL IgG1-TM [upper graph; the letter C stands below it].
From the text: as §1, §2

A value given as a limit tells only on which side of the number the result lay.

B1: Abet0380 scFv (scFv, V domains shown, not shown: small tags and cut ends)
VH: EVQLLESGGGLVQPGGSLRLSCAASMGNFNYQTMWWVRQAPGRGLEWVSVIGKTNENIAYADSVKGRFTISRDNSKNTLYLQMNSLRAEDTAVYYCAREWMDHSRPYYYYGMDVWGQGTLVTVSS
VL: SYELTQPPSVSVSPGQTASITCSGHNLEDKFASWYQQKPGQSPVLVIYRDDKRPSGIPERFSASNSGHTATLTISGTQATDEADYYCSSQDTVTRVFGGGTKLTVL
notes: Purified scFv expressed in E. coli
For orientation: IC50 means the midpoint of a concentration-inhibition curve. High values mean weaker potency in that assay, low ones greater potency in that assay. The term Kd denotes the constant that tells how readily two partners part at equilibrium. A word on the koff: it is the first-order rate constant of dissociation. Broadly, the kon is the rate constant with which the complex forms. Read a low kon as slow association. In assay [1], B1 had an IC50 of 430 pM. Moreover, the IC50 in assay [2] was 380 to 470 pM. Besides, in assay [3], the equilibrium dissociation constant (Kd) came out at 148 pM, the koff is 2.85e-05 s⁻¹ and the on-rate (kon) stood at 193000 M⁻¹ s⁻¹. In assay [4], this molecule gave a Kd of less than 250 pM. For the same molecule, in assay [5], the “IC50 (read off the curve)” value was roughly 500 pM.

The values above are taken from US20190262327A1 (AstraZeneca / MedImmune, published 2019).
